Patent US9120862
Bridge positions count the residues as written; N and C are the ends. Ends that are not written are not given here.

Tests used:
[1] = biological target: monoclonal antibody 3C10 (produced by hybridoma cell line ATCC deposit designation PTA-9638); assay: FCS competition: 2 nM Alexa488-PIVKA-II (13-27) tracer + 10 nM mAb 3C10, competitor titrated; apparent diffusion coefficient of the tracer
[2] = biological target: monoclonal antibody 3C10 (produced by hybridoma cell line ATCC deposit designation PTA-9638); assay: FCS competition: 2 nM Alexa488-PIVKA-II (13-27) premixed with 10 nM mAb 3C10, unlabelled PIVKA-II (13-27) added, overnight; D of the tracer (high D = tracer displaced)

- IC50 (read off the curve) [1]: 50 nM
- Apparent Diffusion Coefficient (D) [2]: 174 um^2/sec
Binder: LERECVEETCSYEEA (disulfide 5-10 (inferred)) [PIVKA-II (13-27) peptide, unlabelled (positive control competitor)]
